B1: m15F1 (antibody, V domains shown)
VH: EEKLVESGGGLVKPGGSLKLSCAASGFSFSSYGMSWVRQTPEKRLEWVASISSGGSIYYPDSVKGRFTISRDNARNILYLQMSSLRSEDTAMYYCARGYDAGFAFWGQGTLVTASA
VL: DIVLTQSPASLAVSLGQRATISCRASQSVSTSSYSYVHWYQQKPGQPPKLLIKYASNLESGVPARFSGSGSGTDFTLNIHPVEEEDTATYYCQHSWEIPYTFGGGTKLEIK
notes: Murine hybridoma IgG (printed 'mIgG'); also called 15F1-mIgG; 15F1 murine
B2: hu5G11-hIgG1 (antibody)
heavy: not shown
light: DIQMTQSPSSLSASVGDRVTITCKASQSVSNDVAWYQQKPGKAPKLLIYYAANRYTGVPDRFSGSGYGTDFTFTISSLQPEDIATYFCQQDYTSPYTFGQGTKLEIKRTVAAPSVFIFPPSDEQLKSGTASVVCLLNNFYPREAKVQWKVDNALQSGNSQESVTEQDSKDSTYSLSSTLTLSKADYEKHKVYACEVTHQGLSSPVTKSFNRGEC
notes: Humanized IgG1 with D265A; also called Humanized 5G11-IgG1 (D265A); hu-5G11-IgG1
B3: hu5G11-hIgG4 (antibody)
heavy: not shown
light: B2 light
notes: Humanized IgG4 with F234A and L235A; also called Humanized 5G11-IgG4 (F234A/L235A); hu-5G11-IgG4
B4: hu13C5-hIgG1 (antibody)
heavy: not shown
light: DIVLTQSPASLAVSPGQRATITCRASQSVSTSSSSFMHWYQQKPGQPPKLLIKYASNLESGVPARFSGSGSGTDFTLTINPVEANDTANYYCQHSWEIPYTFGQGTKLEIKRTVAAPSVFIFPPSDEQLKSGTASVVCLLNNFYPREAKVQWKVDNALQSGNSQESVTEQDSKDSTYSLSSTLTLSKADYEKHKVYACEVTHQGLSSPVTKSFNRGEC
notes: Humanized IgG1 with D265A; also called Humanized 13C5-IgG1 (D265A); hu-13C5-IgG1
B5: hu13C5-hIgG4 (antibody)
heavy: not shown
light: B4 light
notes: Humanized IgG4 with F234A and L235A; also called Humanized 13C5-IgG4 (F234A/L235A); hu-13C5-IgG4
B6: ch5G11-hIgG1 (antibody)
heavy: not shown
light: SIVMTQTPKFLLVSAGDRVTITCKASQSVSNDVAWYQQKPGQSPKLLIYYAANRYTGVPDRFTGSGYGTDFTFTISIVQAEDLAVYFCQQDYTSPYTFGGGTKLEIKRTVAAPSVFIFPPSDEQLKSGTASVVCLLNNFYPREAKVQWKVDNALQSGNSQESVTEQDSKDSTYSLSSTLTLSKADYEKHKVYACEVTHQGLSSPVTKSFNRGEC
notes: Mouse-human chimeric IgG1 (D265A), human kappa; also called Chimeric 5G11-IgG1 (D265A); ch-5G11-IgG1
B7: ch5G11-hIgG4 (antibody)
heavy: not shown
light: B6 light
notes: Mouse-human chimeric IgG4 (F234A/L235A), human kappa; also called Chimeric 5G11-IgG4 (F234A/L235A); ch-5G11-IgG4
B8: ch8H4-hIgG4 (antibody, V domains shown)
VH: EVKLVESGGGLVKPGGSLKLSCAASGFTFRSYGMSWARQIPEKRLEWVASISSGGTTYYLGSVQGRFTISRDNARNILYLQMSSLRSEDTAMYYCARGYDAGFAYWGQGTLVSVSS
VL: DIVLTQSPASLAVSLGQRATISCRASQSVSTSSYSYMHWYQQKPGQPPKLLIKYASNLESGVPARFSGSGSGTDFTLNIHPVEEEDTATYYCQNSWEIPYTFGGGTKLEIKR
notes: Mouse-human chimeric IgG4 (F234A/L235A), human kappa; also called Chimeric 8H4-IgG4 (F234A/L235A); chimeric 8H4-hIgG4
B9: ch8C6-hIgG4 (antibody, V domains shown)
VH: QVQLKQSGPGLVQPSQSLSITCTVSGFSLTSYGVHWVRQSPGKGLEWLGVIWSGGVTDYNAAFISRLSISKDNSKSQVFFKMNSLQANDTAIYYCARLGFYAMDYWGQGTSVTVSS
VL: SIVMTQTPKFLLVSAGDRVTITCKASQSVSNDVGWYQQKPGQSPKLLIYYASNRYSGVPDRFTGSGYGTDFTFTISTVQAEDLAVYFCQQDYTSPYTFGGGTKLEIKR
notes: Mouse-human chimeric IgG4 (F234A/L235A), human kappa; also called Chimeric 8C6-IgG4 (F234A/L235A); chimeric 8C6-hIgG4
B10: hu5G11 (antibody)
VH: QITLKESGPTLVKPTQTLTLTCTVSGFSLSTYGVHWIRQPPGKALEWLGVIWRGVTTDYNAAFMSRLTITKDNSKNQVVLTMNNMDPVDTATYYCARLGFYAMDYWGQGTLVTVSS
light: B2 light

target: T1, hPD-L1-hFc (human); experiment: ELISA, coated PD-L1-hFc
T1 construct: it may hold a signal peptide ('open reading frame of the extracellular domain'); also called PD-L1-hFc protein; human PD-L1 extracellular domain fused with human Fc tag
Method: (§1) ELISA binding analyses were conducted based on human PD-L1-mFc (for chimeric and humanized antibody detection) and PD-L1-hFc protein (for hybridoma antibody detection). 96-well plates (Costar, Cat No: 9018) were coated with 100 μL of 2 μg/ml PD-L1-mFc (Crownbio) in coating buffer PBS (Hyclone, Cat No: SH30256.01B) overnight at 4° C. The wells were aspirated and non-specific binding sites were blocked by adding 200 μL of blocking buffer (PBS with 1% (w/v) of bovine serum albumin (BSA, Roche, Cat No:738328)) and incubating for 1 hour at 37° C. After the plates were washed three times with wash buffer (PBS with 0.05% (v/v) Tween20 (Sigma, Cat No:P1379)), 100 μL/well of 1:10 serial dilutions of hybridoma (FIG. 1), chimeric (FIG. 2), or humanized (FIG. 3) anti-PD-L1 antibodies in blocking buffer (starting from 20 μg/mL) were added and incubated at room temperature for 1 hour. The plates were washed and incubated with 100 μL/well of Goat anti-Mouse IgG (H+L) (Thermo, Cat No: 31432) in blocking buffer for 60 min. After the plates were washed, 100 μL/well of substrate solution TMB (eBioscience, Cat No: 00-4201-56) were added and the plates were incubated for 2 min at room temperature. 100 μL/well of stop solution (2N H₂SO₄) was added to stop the reaction. The colorimetric signals were developed and read at 450 nm using an Auto Plate SpectraMax Plus (Supplier: Moleculer Devices; Model: MNR0643; Software: SoftMax Pro v5.4). Data were analyzed using GraphPad Prism 5 and EC50 was calculated (FIGS. 1-3; Tables 5-7).

| Binder | EC50 [µg/mL] |
| --- | --- |
| B1 | 0.0487 |

target: T2, PD-L1 on 293T cells (UniProt Q9NZQ7 19-290); experiment: flow cytometry on PD-L1-293T cells
T2 construct: whole, on cells; also called PD-L1-293T; 293T-PD-L1 cells
Method: Cell binding analyses of anti-PD-L1 antibodies were performed based on binding to a 293T cell line stably expressing PD-L1 (PD-L1-293T). 2×10⁵ 293T-PD-L1 cells were added into each well of 96-well culture plates and incubated with the indicated antibody (20 μg/ml with the dilution of 1:5) at 4° C. for 1 h. After the cells were washed three times with FACS buffer, the secondary antibody (PE Goat anti-mouse: 1:200; PE mouse anti-human: 1:10) was added to the cells at 100 μl/well, and incubated at 4° C. for 40 min. Cells were washed three times with FACS buffer and analyzed by FACS Array.

| Binder | EC50 [µg/mL] |
| --- | --- |
| B2 | 0.0479 |
| B3 | 0.0543 |
| B1 | 0.0478 |
| B4 | 0.08 |
| B5 | 0.0804 |
| B6 | 0.0583 |
| B7 | 0.0897 |

target: T2, PD-L1 on 293T cells; experiment: flow cytometry competition: blocks biotin-labeled PD-1 binding to PD-L1-293T cells
Method: Briefly, PD-L1-293T cells were suspended in FACS buffer (PBS with 3% fetal calf serum). Various concentrations of the hybridoma (FIG. 10), chimeric (FIG. 11), or humanized (FIG. 12) anti-PD-L1 antibodies were added to the cell suspension and incubated at 4° C. for 60 minutes in 96 well plates. […] The cells were washed 3 times with PBS and incubated with mouse anti-biotin PE (Biolegend, cat# 409004). The cell-associated fluorescence was then detected by flow cytometry analysis using FACS array.

| Binder | IC50 [µg/mL] |
| --- | --- |
| B8 | 0.042 |
| B2 | 0.0165 |
| B3 | 0.0096 |
| B1 | 0.0211 |
| B4 | 0.0185 |
| B5 | 0.0499 |
| B6 | 0.0404 |
| B7 | 0.0332 |
| B9 | 0.0349 |

target: T3, cynomolgus PD-L1 (cynomolgus, UniProt G7PSE7 19-238); experiment: SPR (Biacore 3000), antibody captured, PD-L1 as analyte, 1:1 fit
T3 construct: also called Cyno-PD-L1; cyno-PD-L1; not shown: Any tag or Fc carrier on the soluble cynomolgus PD-L1 analyte
Method: (§2) The binding kinetics between PD-L1 and PD-L1 antibodies were measured by Biacore analysis, which was performed at 25° C. on a Biacore3000 instrument and recorded with a data collection rate of 1 Hz. Polyclonal rabbit anti-mouse IgG (GE, BR-1008-38) was diluted with 10 mM pH 5.0 sodium acetate and immobilized onto reference and experiment flow cells of a CM5 biosensor chip to around 15000 RU using an amine coupling kit (GE, BR10050). […] PD-L1 analyte series were prepared by diluting the stocks with running buffer to 100 nM followed by 2× serial dilution in the same buffer down to 0.78 nM. Analytes were injected in series over the reference and experiment flow cells for 3 minutes at a flow rate of 30 μL/minute. Running buffer (PBS with 0.05% P20) was allowed to flow over for 10 minutes at a flow rate of 30 μL/minute. At the end of each cycle, the biosensor surface was regenerated with 3 minutes injection of 10 mM pH1.7 Glycine-HCl buffer at a flow rate of 10 μL/minute. For each analyte sample injection (i.e. each cycle), binding responses obtained from the experimental biosensor surface were double referenced by subtracting simultaneously recorded responses from the reference surface followed by additional subtraction of responses from a single referenced running buffer sample. The association and dissociation rate constants (ka and kd) were determined simultaneously by fitting double-referenced sensorgrams of the entire titration series to Langmuir model (1:1) using Biaevaluation 4.0 software. The dissociation constant, KD, was calculated from the determined rate constants by the relation KD=kd/ka.

| Binder | Kd [nM] |
| --- | --- |
| B10 | 0.275 |

target: T4, Human PD-L1 (human, UniProt Q9NZQ7 19-238, limits assumed); experiment: as above
T4 construct: also called PD-L1 analyte (Biacore); hPD-L1
Method: as §2

| Binder | Kd [nM] |
| --- | --- |
| B10 | 0.225 |
| B1 | 3.59 |

target: T5, hPD-L1-mFc (human); experiment: ELISA, coated PD-L1-mFc
T5 construct: it may hold a signal peptide; also called human PD-L1-mFc; PD-L1-mFc (Crownbio)
Method: as §1

| Binder | EC50 [µg/mL] |
| --- | --- |
| B8 | 0.134 |
| B2 | 0.0495 |
| B3 | 0.0699 |
| B4 | 0.0856 |
| B5 | 0.127 |
| B6 | 0.0821 |
| B7 | 0.09 |
| B9 | 0.076 |

target: T6, biotinylated human PD-L1-mFc (human, biotinylated (sites not given)); experiment: competition ELISA: blocks PD-L1-mFc-biotin binding to coated PD-1-hFc
T6 construct: also called PDL-1-mFc-biotin
Method: The wells were aspirated and non-specific binding sites were blocked by adding 200 μL of blocking buffer (PBS with 1% (w/v) of bovine serum albumin (BSA, Roche, Cat No:738328)) and incubating for 1 hour at 37° C. After the plate was washed three times with wash buffer (PBS with 0.05% (v/v) Tween20 (Sigma, Cat No:P1379)), 100 μL/well of 1:3 serial dilutions of hybridoma (FIG. 4), chimeric (FIG. 5), or humanized (FIG. 6) anti-PD-L1 antibodies in blocking buffer (starting from 20 μg/mL) were added and incubated at 37° C. for 1 hour. […] After the plate was washed 3 times, secondary antibody (Avidin HRP eBioscience cat No.: E07418-1632, 1:500, 100 μl/well) was added and incubated at 37° C. for 0.5 hour. After the plate was washed, 100 μL/well of substrate solution TMB (eBioscience, Cat No: 00-4201-56) was added and the plate was incubated for 3min at room temperature. 100 μL/well of stop solution (2N H₂SO₄) was added to stop the reaction. The colorimetric signals were developed and read at 450 nm using an Auto Plate SpectraMax Plus (Supplier: Moleculer Devices; Model: MNR0643; Software: SoftMax Pro v5.4). Data were analyzed using GraphPad Prism 5 and IC50 was calculated (FIGS. 4-6; Tables 8-10).

| Binder | IC50 [µg/mL] |
| --- | --- |
| B8 | 0.848 |
| B2 | 0.794 |
| B3 | 0.823 |
| B1 | 0.655 |
| B4 | 1.2 |
| B5 | 1.19 |
| B6 | 1.01 |
| B7 | 0.926 |
| B9 | 0.477 |
